This sample holds only a part of the variants without activity.

B1: TPR 5TU (parent)
chain: GGAUCUUCUCGAUCUAACAAAAAAGACAAAUCUGCCACAAAGCUUGAGAGCAUCUUCGGAUGCAGAGGCGGCAGCCUUCGGUGGCGCGAUAGCGCCAACGUUCUCAACUAUGACACGCAAAACGCGUGCUCCGUUGAAUGGAGUUUAUCAUG

Variants of B1 are the subject of the series. Description: polymerase ribozyme fitness, log enrichment relative to wild type (log ratio); higher = more active; in vitro selection for triplet polymerase activity. The procedure, abridged: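 In triplicate, a single round of in vitro selection was run on each mutant library, PCR-built and transcribed, covering one subunit of a heterodimeric triplet polymerase ribozyme. Frozen incubation at −7 °C followed annealing with a biotinylated primer, partner subunit and triplets, and extended constructs were then gel-excised, streptavidin-captured and taken through RT-PCR. Fitness is the logarithm of genotype enrichment over wild-type enrichment, from inverse-variance-weighted replicate averages of Illumina-sequenced inputs and outputs. […] only genotypes with ≥10 input reads and ≥1 read per output were kept.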
C87U U148A: the “polymerase ribozyme fitness (log ratio)” value is -3.62. Then G86U A89C A119C, with -3.83; and C87G A110C U146G C149A, with at most -4.2; and C87A A91G, with at most -4.2. Then C85U U146G U148C, with -2.24. In the case of C85G G128C it was at most -4.2. Regarding C87A C125U A137U, the “polymerase ribozyme fitness (log ratio)” value is at most -4.2. In the case of C87A U101G G124A A142C it was -4.02. In the case of C87U C116A it was 1.21; in that of G86C G136A, -1.38.

As to C87G C105U A137C A150U, the “polymerase ribozyme fitness (log ratio)” value was at most -4.2. For C87U A110G G112U, the “polymerase ribozyme fitness (log ratio)” value is at most -4.2. Then C87U C105G A121U A122U, with -1.19; and G86C U145C, with -3.66; and C87U C123U C149G, with -2.65. In the case of C85U U146G it was -0.713; in that of C85U U146A, -0.167; in that of C85G G94U, -0.835.

For C85U A121C, the “polymerase ribozyme fitness (log ratio)” value was -0.139. Then C85U U127C U145A, with -3.58; and G86U U104G C116A, with -2.52; and G86U A98U U111G C114U, with -3.81. In the case of C85G G124A G133A it was at most -4.2; in that of G86U C108U, -4.14; in that of C85U G136U, -1.83. Then C85U C96U A98G A150G, with -2.21; and C85U G100U A121C G124A C125G G136A A142G G152U, with at most -4.2; and C87U A120G A121C A147U U148C, with -2.38.

For C85U G88A A98U, the “polymerase ribozyme fitness (log ratio)” value was -3.79. Then G86U A89G U145A, with -3.28; and C87U A142G, with -0.623. Then C85U A142G, with -1.38. Then G86U G92C, with -2.75. Regarding G86U G92U, the “polymerase ribozyme fitness (log ratio)” value was -1.95. In the case of C85U C99G G126A U135G it was at most -4.2; in that of C85U C95U G133A, -4; in that of C85G G86A, -3.83. For G86U C93G, the “polymerase ribozyme fitness (log ratio)” value was -1.28.

Consider C85G G92C A106C A120U A121G U134A, for which the “polymerase ribozyme fitness (log ratio)” value is at most -4.2. In the case of C85U U130G it was -3.71; in that of C87U A150G G152U, at most -4.2. Then C85G U144G, with -1.75; and C85U G152U, with -3.73.

For C85U C114G G128A, the “polymerase ribozyme fitness (log ratio)” value is at most -4.2. In the case of C87A A106U it was -4.18. In the case of C85U G86U C93U U130A A138U it was at most -4.2; in that of C85G C99U G112U C118U, at most -4.2; in that of C87A A150G, at most -4.2.

G88A A89G: the “polymerase ribozyme fitness (log ratio)” value was -3.67. In the case of C85G U144A A150U it was -3.7; in that of C85U A89U A110C A121U G136A U146C, at most -4.2. Then C85U C116U G141A, with -2.95; and C87U A98G, with -1.67; and C87U A98C, with -1.07.

In the case of C85U G117U, the “polymerase ribozyme fitness (log ratio)” value was found to be 0.675. On to C85U G117A, for which the “polymerase ribozyme fitness (log ratio)” value was found to be 0.212.

Take C87U G88U: the “polymerase ribozyme fitness (log ratio)” value was at most -4.2. In the case of C87A A115C it was -4.1; in that of C87U C118U G143C, -2.54; in that of G86U A142G, -2.35. In the case of C87U U109C it was -3.46. In the case of G86C U101A U104G A107C G112C it was at most -4.2; in that of G86A U90A, -3.67. C85U C95G C108U: the “polymerase ribozyme fitness (log ratio)” value was at most -4.2. In the case of C85U G128U C131U it was -2.93; in that of C87A A91G G152U, -4.13; in that of C87G G94C C132G, at most -4.2. In the case of C85G C118U it was -3.37; in that of C87U G100U C114U, at most -4.2.

With C85U U139G, the “polymerase ribozyme fitness (log ratio)” value is -0.28.

On to C85U U139C, for which the “polymerase ribozyme fitness (log ratio)” value was -3.16. Then C85U A89G, with -2.67; and C87U A120G, with -1.85. Then G86C C99G U109G C129A U148G, with at most -4.2; and C87U A106G U139C, with -3.59. In the case of C85G U90A C114A, the “polymerase ribozyme fitness (log ratio)” value is at most -4.2. Then C85U U101A, with -0.791. Then C85U U101G, with -1.15.

With C87U A150C, the “polymerase ribozyme fitness (log ratio)” value was -3.7.

As for C87U G92C, the “polymerase ribozyme fitness (log ratio)” value is -0.38. In the case of C85U A98G it was -0.688; in that of G86A U102G, -4.05; in that of C85U A115U G140A, -3.77. Take G86U C93G A106G C132U U148A: the “polymerase ribozyme fitness (log ratio)” value was -3.05.

G86U U102G A150U: the “polymerase ribozyme fitness (log ratio)” value was -3.59. Then C85U C105U, with -0.279.

As to C87A G88A G117A A119G, the “polymerase ribozyme fitness (log ratio)” value was at most -4.2. As for C87A C93U C95U G100A C116U A121G C129A U130G, the “polymerase ribozyme fitness (log ratio)” value is at most -4.2.

On to C85G U135C A138C, for which the “polymerase ribozyme fitness (log ratio)” value is at most -4.2.

For the variant C87U U90C U134A A138U G143A, the “polymerase ribozyme fitness (log ratio)” value was at most -4.2. Then C85U G92U C125A G136C, with -3.55; and C85U A97U A115U, with -2.7. Then C87A A107C, with at most -4.2; and C85G C99G C116G G136U, with at most -4.2; and G86A A110G U145A C149G, with at most -4.2. In the case of C87U A91U A98G A138G G152A it was at most -4.2; in that of C85U U101G C105A U109G A110G, -4.19; in that of C87U G152C, -3.17.

With G86A C103G C123U, the “polymerase ribozyme fitness (log ratio)” value is -3.36.

Consider G86U U90G A98U G143C, for which the “polymerase ribozyme fitness (log ratio)” value is at most -4.2. In the case of C85G C125A C131A C149U it was at most -4.2; in that of C85G C123G U139A, at most -4.2; in that of C85G C96U C116A A137C, at most -4.2.

Take G86U U90G C103A A119C A121C A138C: the “polymerase ribozyme fitness (log ratio)” value is at most -4.2. In the case of C87U C125A C131U it was 0.186; in that of G86A A113C, -3.53; in that of C85U G141C, -0.765. In the case of C85U G141U it was 1.07. As to C87A A138C, the “polymerase ribozyme fitness (log ratio)” value is at most -4.2.

For the variant C87G G92C G126A, the “polymerase ribozyme fitness (log ratio)” value amounted to 0.48. In the case of G86A G94C C132U G141C it was at most -4.2; in that of C87U G117C U144A, -1.27.

G86C C114U: the “polymerase ribozyme fitness (log ratio)” value was -3.9.

Regarding C85U, the “polymerase ribozyme fitness (log ratio)” value was -0.513.

For the variant C87A C93A C95G A121U U127G G140A, the “polymerase ribozyme fitness (log ratio)” value was at most -4.2.

In the case of C85U C125U, the “polymerase ribozyme fitness (log ratio)” value is -0.156.

As to C85U C125G, the “polymerase ribozyme fitness (log ratio)” value is -0.638. Then C85U C93G, with -3.83; and C85G C125U, with -3.35. Then C85G C99G, with -4.1; and C85G G94U C118G, with -0.928; and C85U C87U, with 0.308. Then G86C U109G C118G, with -3.5. Take G86U G88C A119C U127A U144G: the “polymerase ribozyme fitness (log ratio)” value is at most -4.2. On to G86U U148A, for which the “polymerase ribozyme fitness (log ratio)” value is -3.6. Then C87G U111G, with at most -4.2; and G86U C125U, with -2.02; and C87U G133U, with -2.95. Then C87A G141U, with -3.64; and C87A G141A, with -3.89. Then C87A U144C, with at most -4.2; and C87A U144G, with -3.92; and C87U U90C C99G, with -3.53. Turning to G86C A98C, the “polymerase ribozyme fitness (log ratio)” value is -1. In the case of G86U A119G, the “polymerase ribozyme fitness (log ratio)” value was -1.54. In the case of C85U C87U U144G it was 0.338; in that of C85U U127C, -2.51; in that of C85U U127A, -3.36. As for C87A U90G U134G, the “polymerase ribozyme fitness (log ratio)” value is at most -4.2. Then C87G G112U, with at most -4.2. Then C85U A107U, with -3.65; and G86A A89U, with -1.96; and C87U C103U, with -0.658.

Take C87U C103G: the “polymerase ribozyme fitness (log ratio)” value is -2.13. In the case of C87U G117A, the “polymerase ribozyme fitness (log ratio)” value was -0.356. In the case of G86C U101G it was -2.8; in that of C85G U109G U144C, at most -4.2; in that of G86U C149A, at most -4.2. Then C87A G112C C116G, with at most -4.2; and C85U G140A, with -3.24. Then C87U A97U, with -2.25; and C87U U101G A137C, with -3.73.

For C87U G143U, the “polymerase ribozyme fitness (log ratio)” value was -2.69. Regarding C87U C105G, the “polymerase ribozyme fitness (log ratio)” value was -1.18. Turning to C85U G124U, the “polymerase ribozyme fitness (log ratio)” value is -0.801. C87G C149U: the “polymerase ribozyme fitness (log ratio)” value is at most -4.2. In the case of C87A G92U it was 0.159; in that of G86A A150C, at most -4.2. On to G86A A150G, for which the “polymerase ribozyme fitness (log ratio)” value was -3.09. Then C87U G94C, with -2.05; and C87A A89U C129G, with at most -4.2; and C85U A98C G124C, with -1.37.

As to C87U A91G C105G, the “polymerase ribozyme fitness (log ratio)” value is -4.02.

C85G U139C G143A: the “polymerase ribozyme fitness (log ratio)” value was at most -4.2. Then G86A A122G U148G, with at most -4.2; and C87U A106G, with -0.549; and G86A A110U A138G, with at most -4.2.

These data come from the RNAGym collection of RNA variant scans (doi:10.1073/pnas.2313332121).
